Reference: patent US20220153864A1

Tests used:
[1] = biological target: 32 different targets including GPC3, GPC5, and other TNF receptor proteins; experiment: off-target ELISA on 32 coated targets, binder at 100 nM, signals normalized to control antibody SEQ ID NOs: 106 and 107 and summed
[2] = biological target: 32 different targets including GPC3, GPC5, and other TNF receptor proteins; experiment: off-target ELISA on 32 coated targets, sum of the ratios at 100 nM and 10 nM
[3] = biological target: 32 different targets including GPC3, GPC5, and other TNF receptor proteins; experiment: off-target ELISA on 32 coated targets, binder at 10 nM, signals normalized to control antibody SEQ ID NOs: 106 and 107 and summed

cumulative binding ratio [1]: 81
sum of cumulative binding ratios [2]: 129
cumulative binding ratio [3]: 48
B1: GPC3 antibody as included in the fusion protein (SEQ ID NOs: 81 and 82) (antibody, human IgG4 S228P, kappa, F234A L235A, V domains shown)
VH: QVQLVQSGAEVKKPGASVKVSCKASGYTFTDYEMHWVRQAPGQGLEWMGALDPKTGDTAYSQKFKGRVTLTADKSTSTAYMELSSLTSEDTAVYYCTRFYSYTYWGQGTLVTLVS
VL: DVVMTQSPLSLPVTPGEPASISCRSSQSLVHSNRNTYLHWYLQKPGQSPQLLIYKVSNRFSGVPDRFSGSGSGTDFTLKISRVEAEDVGVYYCSQNTHVPPTFGQGTKLEIKR
